Paper doi:10.1101/2024.10.15.618391
Where “and” joins values, the source holds several entries; their conditions need not be identical. Equal values may be shown once. Read-outs that look alike come from different tables or passages of the source.

What was measured:
Assay in all cases: BLI
[1] = biological target: His6-SeSepF (Spiroplasma eriocheiris SepF) (Spiroplasma eriocheiris)
[2] = biological target: His6-SeSepF (Spiroplasma eriocheiris SepF) (Spiroplasma eriocheiris); remark: listed apart in the source
[3] = biological target: His6-SeSepF (Spiroplasma eriocheiris SepF) (Spiroplasma eriocheiris); remark: listed apart in the source

Substance | Kd [1] | Kd [2] | Kd [3]
SeFtsZ L272E mutant (from UniProt A0A0H3XMR3 1-411) (natural protein) | 980 nM and 700 nM | – | –
Spiroplasma eriocheiris FtsZ, His-tag removed (from UniProt A0A0H3XMR3 1-411) (natural protein) | 1130 nM | 1040 nM | 53900 nM
